The values that follow come from PMC9793311, “Negative cooperativity underlies dynamic assembly of the Par complex regulators Cdc42 and Par-3” (The Journal of Biological Chemistry, 2022).

The Kd is a measure of binding affinity in units of concentration.

First the molecules themselves.
T1: Par complex (Drosophila melanogaster, UniProt O97111 1-351; A1Z9X0 1-606)
T1 construct: atypical PKC (aPKC), Drosophila melanogaster, residues 1-606, from pCMV aPKC; also called Par-6/aPKC; intact Par complex
T1 sequence (looked up) 1: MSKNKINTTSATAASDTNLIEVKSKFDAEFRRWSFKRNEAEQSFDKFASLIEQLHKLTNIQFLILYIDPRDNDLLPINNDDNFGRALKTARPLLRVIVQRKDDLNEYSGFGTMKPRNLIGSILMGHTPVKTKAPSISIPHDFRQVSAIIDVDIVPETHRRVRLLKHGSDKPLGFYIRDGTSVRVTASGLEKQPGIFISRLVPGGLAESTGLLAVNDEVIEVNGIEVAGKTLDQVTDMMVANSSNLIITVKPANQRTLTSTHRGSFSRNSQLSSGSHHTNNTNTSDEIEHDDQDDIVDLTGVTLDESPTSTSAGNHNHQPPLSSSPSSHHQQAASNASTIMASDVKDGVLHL
T1 sequence (looked up) 2: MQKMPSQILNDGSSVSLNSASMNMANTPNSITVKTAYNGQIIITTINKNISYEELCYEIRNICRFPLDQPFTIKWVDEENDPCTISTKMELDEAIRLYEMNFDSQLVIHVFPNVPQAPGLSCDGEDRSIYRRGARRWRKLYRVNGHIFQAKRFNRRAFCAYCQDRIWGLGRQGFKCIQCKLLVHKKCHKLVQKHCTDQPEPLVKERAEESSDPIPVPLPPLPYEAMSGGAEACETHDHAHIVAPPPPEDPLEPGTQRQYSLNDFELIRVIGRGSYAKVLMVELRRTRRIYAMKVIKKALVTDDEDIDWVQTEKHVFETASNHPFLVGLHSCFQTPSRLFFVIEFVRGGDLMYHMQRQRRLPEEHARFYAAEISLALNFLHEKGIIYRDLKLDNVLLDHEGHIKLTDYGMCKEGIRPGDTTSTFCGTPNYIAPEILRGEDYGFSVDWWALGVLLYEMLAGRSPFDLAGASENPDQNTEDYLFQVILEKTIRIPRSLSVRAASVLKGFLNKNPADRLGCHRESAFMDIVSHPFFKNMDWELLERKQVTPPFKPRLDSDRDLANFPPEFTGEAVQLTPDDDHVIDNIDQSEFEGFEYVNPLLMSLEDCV

B1: His-Par-3 PDZ2 (domain or fragment, Drosophila melanogaster, UniProt O96782 444-533, looked up)
chain: QIMLKKGPNGLGFSVTTRDNPAGAHCPIYIKNILPRGAAIEDGRLKPGDRLLEVDGTPMTGKTQTDVVAILRGMPAGATVRIVVSRQQEL
notes: Par-3 (Bazooka), Drosophila melanogaster, PDZ2, residues 444-533, from pET19; source: E. coli BL21-DE3, His-purified
B2: His-Par-6 CRIB-PDZ (domain or fragment, Drosophila melanogaster, UniProt O97111 130-255, looked up)
chain: KTKAPSISIPHDFRQVSAIIDVDIVPETHRRVRLLKHGSDKPLGFYIRDGTSVRVTASGLEKQPGIFISRLVPGGLAESTGLLAVNDEVIEVNGIEVAGKTLDQVTDMMVANSSNLIITVKPANQR
notes: Par-6, Drosophila melanogaster, CRIB-PDZ, residues 130-255, from pBH; chosen because the methods name GST-Cdc42^Q61L as the solid phase; source: E. coli BL21-DE3, His-purified
B3: GST-Par-3 PDZ3 (domain or fragment, Drosophila melanogaster, UniProt O96782 616-741, looked up)
chain: HSREELTLHIPVHDTEKAGLGVSVKGKTCSNLNASGSSASSGSNGLMKHDGDLGIFVKNVIHGGAASRDGRLRMNDQLLSVNGVSLRGQNNAEAMETLRRAMVNTPGKHPGTITLLVGRKILRSAS
notes: Par-3 (Bazooka), Drosophila melanogaster, PDZ3, residues 616-741, from pGEX; source: E. coli BL21-DE3, lysate adsorbed to glutathione resin and washed; not shown: GST, N-terminal, kept
B4: GST-Cdc42^Q61L (natural protein)
chain: not shown
notes: Cdc42, Drosophila melanogaster, residues 1-191 with Q61L, from pGEX; Nucleotide state is not described; Q61L is called constitutively active; also called GST-fused Cdc42Q61L; solid phase Cdc42^Q61L; source: E. coli BL21-DE3, lysate adsorbed to glutathione resin and washed; not shown: GST, N-terminal, kept
B5: MBP-Par-3 PDZ1-APM ΔPDZ1 (domain or fragment, Drosophila melanogaster, UniProt O96782 393-987, looked up)
chain: LRGDRNRRQQRDSKVADMVEVATVSPTRKPHAAPVGTSLQVANTRKLGRKIQIMLKKGPNGLGFSVTTRDNPAGAHCPIYIKNILPRGAAIEDGRLKPGDRLLEVDGTPMTGKTQTDVVAILRGMPAGATVRIVVSRQQELAEQADQPAEKSAGVAVAPSVAPPAVPAAAAPAPPIPVQKSSSARSLFTHQQQSQLNESQHFIDAGSESAASNDSLPPSSNSWHSREELTLHIPVHDTEKAGLGVSVKGKTCSNLNASGSSASSGSNGLMKHDGDLGIFVKNVIHGGAASRDGRLRMNDQLLSVNGVSLRGQNNAEAMETLRRAMVNTPGKHPGTITLLVGRKILRSASSSDILDHSNSHSHSHSNSSGGSNSNGSGNNNNSSSNASDNSGATVIYLSPEKREQRCNGGGGGGSAGNEMNRWSNPVLDRLTGGICSSNSAQPSSQQSHQQQPHPSQQQQQQRRLPAAPVCSSAALRNESYYMATNDNWSPAQMHLMTAHGNTALLIEDDAEPMSPTLPARPHDGQHCNTSSANPSQNLAVGNQGPPINTVPGTPSTSSNFDATYSSQLSLETNSGVEHFSRDALGRRSISEKHHA
notes: Par-3 (Bazooka), Drosophila melanogaster, residues 393-987, from pMAL Par-3 393-987-His; source: E. coli BL21-DE3, His-purified
B6: MBP-Par-3 PDZ1-APM ΔPDZ3 (domain or fragment, Drosophila melanogaster, UniProt O96782 309-987, looked up)
chain: DGEMLLIINEYGSPLGLTALPDKEHGGGLLVQHVEPGSRAERGQLRRDDRILEINGIKLIGLTESQVQEQLRRALESSELRVRVLRGDRNRRQQRDSKVADMVEVATVSPTRKPHAAPVGTSLQVANTRKLGRKIQIMLKKGPNGLGFSVTTRDNPAGAHCPIYIKNILPRGAAIEDGRLKPGDRLLEVDGTPMTGKTQTDVVAILRGMPAGATVRIVVSRQQELAEQADQPAEKSAGVAVAPSVAPPAVPAAAAPAPPIPVQKSSSARSLFTHQQQSQLNESQHFIDAGSESAASNDSLPPSSNSWSSDILDHSNSHSHSHSNSSGGSNSNGSGNNNNSSSNASDNSGATVIYLSPEKREQRCNGGGGGGSAGNEMNRWSNPVLDRLTGGICSSNSAQPSSQQSHQQQPHPSQQQQQQRRLPAAPVCSSAALRNESYYMATNDNWSPAQMHLMTAHGNTALLIEDDAEPMSPTLPARPHDGQHCNTSSANPSQNLAVGNQGPPINTVPGTPSTSSNFDATYSSQLSLETNSGVEHFSRDALGRRSISEKHHA
notes: Par-3 (Bazooka), Drosophila melanogaster, residues 309-987 with 616-741 deleted, from pMAL Par-3 309-987 Δ616-741-His; source: E. coli BL21-DE3, His-purified
B7: MBP-Par-3 PDZ1-APM (domain or fragment, Drosophila melanogaster, UniProt O96782 309-987, looked up)
chain: DGEMLLIINEYGSPLGLTALPDKEHGGGLLVQHVEPGSRAERGQLRRDDRILEINGIKLIGLTESQVQEQLRRALESSELRVRVLRGDRNRRQQRDSKVADMVEVATVSPTRKPHAAPVGTSLQVANTRKLGRKIQIMLKKGPNGLGFSVTTRDNPAGAHCPIYIKNILPRGAAIEDGRLKPGDRLLEVDGTPMTGKTQTDVVAILRGMPAGATVRIVVSRQQELAEQADQPAEKSAGVAVAPSVAPPAVPAAAAPAPPIPVQKSSSARSLFTHQQQSQLNESQHFIDAGSESAASNDSLPPSSNSWHSREELTLHIPVHDTEKAGLGVSVKGKTCSNLNASGSSASSGSNGLMKHDGDLGIFVKNVIHGGAASRDGRLRMNDQLLSVNGVSLRGQNNAEAMETLRRAMVNTPGKHPGTITLLVGRKILRSASSSDILDHSNSHSHSHSNSSGGSNSNGSGNNNNSSSNASDNSGATVIYLSPEKREQRCNGGGGGGSAGNEMNRWSNPVLDRLTGGICSSNSAQPSSQQSHQQQPHPSQQQQQQRRLPAAPVCSSAALRNESYYMATNDNWSPAQMHLMTAHGNTALLIEDDAEPMSPTLPARPHDGQHCNTSSANPSQNLAVGNQGPPINTVPGTPSTSSNFDATYSSQLSLETNSGVEHFSRDALGRRSISEKHHA
notes: Par-3 (Bazooka), Drosophila melanogaster, residues 309-987 (PDZ1 to the aPKC phosphorylation motif), from pMAL Par-3 309-987-His; also called MBP-Par-3 PDZ1-APM-His; Bazooka; source: E. coli BL21-DE3; His-purified (soluble phase) or lysate adsorbed to amylose resin and washed (solid phase); not shown: MBP, N-terminal, kept
B8: His-Par-3 BR-PDZ2 (domain or fragment, Drosophila melanogaster, UniProt O96782 426-533, looked up)
chain: PVGTSLQVANTRKLGRKIQIMLKKGPNGLGFSVTTRDNPAGAHCPIYIKNILPRGAAIEDGRLKPGDRLLEVDGTPMTGKTQTDVVAILRGMPAGATVRIVVSRQQEL
notes: Par-3 (Bazooka), Drosophila melanogaster, basic region and PDZ2, residues 426-533, from pET19; source: E. coli BL21-DE3, His-purified

Conditions in all cases: both partners purified
The target in assay [1] is T1, Par complex. The assay is described as follows: pull-down; GST-fused protein on glutathione resin (from bacterial lysate, washed 4x); soluble purified proteins added, 60 min at room temperature; 20 mM Hepes pH 7.5, 100 mM NaCl, 5 mM MgCl2, 0.5% Tween-20, 1 mM DTT, 200 uM ATP; Coomassie-stained gel.
The assay “GST-Cdc42^Q61L” concerns the target B4. In words: supernatant depletion; Cdc42 with Par-6 CRIB-PDZ (Figure S1); the text does not say which of the two was on the resin; buffer as for the other supernatant depletion assays.
In assay [2] the target is T1, Par complex. In words: supernatant depletion; GST-Cdc42^Q61L on GSH resin (ligand), soluble Par complex (receptor), 60 min at room temperature; 20 mM Hepes pH 7.5, 100 mM NaCl, 5 mM MgCl2, 0.5% Tween-20, 1 mM DTT, 200 uM ATP; KD from the fraction depleted at one dilution, in sextuplicate.
The target of assay [3] is T1, Par complex. In words: supernatant depletion; MBP-Par-3 PDZ1-APM on amylose resin (ligand), soluble Par complex (receptor), 10 min at room temperature; 20 mM Hepes pH 7.5, 100 mM NaCl, 5 mM MgCl2, 0.5% Tween-20, 1 mM DTT, 200 uM ATP; KD from the fraction depleted at one dilution, in sextuplicate.

Chain of GST-Cdc42^Q61L (P40793 whole entry Q61L, the tested form may be a part): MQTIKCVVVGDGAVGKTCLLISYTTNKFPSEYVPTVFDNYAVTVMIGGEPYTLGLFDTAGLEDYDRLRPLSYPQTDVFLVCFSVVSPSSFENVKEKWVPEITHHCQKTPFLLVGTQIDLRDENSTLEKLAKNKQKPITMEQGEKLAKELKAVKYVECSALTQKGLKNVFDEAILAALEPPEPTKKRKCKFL

Regarding B1, in the assay with Par complex [1], the binding result is “binds”.

For B2, the affinity with GST-Cdc42^Q61L, expressed as Kd, was 2300 nM.

As to B3, the binding result in the assay with Par complex [1] is “binds”.

For the molecule B4, binding in the assay with Par complex [2] was characterised by a dissociation constant (Kd) of 5.4 µM.

With B5, in the assay with Par complex [1], the binding result was “binds”.

B6: the binding result in the assay with Par complex [1] is on record as “binds”.

In the assay with Par complex [3], B7 displayed a Kd of 600 nM.

Turning to B8, in the assay with Par complex [1], the binding result is “binds”.
